T1: CBP-Upf1-FL (S.c. Upf1 full-length) (S. cerevisiae, UniProt P30771 1-971)
T1 sequence: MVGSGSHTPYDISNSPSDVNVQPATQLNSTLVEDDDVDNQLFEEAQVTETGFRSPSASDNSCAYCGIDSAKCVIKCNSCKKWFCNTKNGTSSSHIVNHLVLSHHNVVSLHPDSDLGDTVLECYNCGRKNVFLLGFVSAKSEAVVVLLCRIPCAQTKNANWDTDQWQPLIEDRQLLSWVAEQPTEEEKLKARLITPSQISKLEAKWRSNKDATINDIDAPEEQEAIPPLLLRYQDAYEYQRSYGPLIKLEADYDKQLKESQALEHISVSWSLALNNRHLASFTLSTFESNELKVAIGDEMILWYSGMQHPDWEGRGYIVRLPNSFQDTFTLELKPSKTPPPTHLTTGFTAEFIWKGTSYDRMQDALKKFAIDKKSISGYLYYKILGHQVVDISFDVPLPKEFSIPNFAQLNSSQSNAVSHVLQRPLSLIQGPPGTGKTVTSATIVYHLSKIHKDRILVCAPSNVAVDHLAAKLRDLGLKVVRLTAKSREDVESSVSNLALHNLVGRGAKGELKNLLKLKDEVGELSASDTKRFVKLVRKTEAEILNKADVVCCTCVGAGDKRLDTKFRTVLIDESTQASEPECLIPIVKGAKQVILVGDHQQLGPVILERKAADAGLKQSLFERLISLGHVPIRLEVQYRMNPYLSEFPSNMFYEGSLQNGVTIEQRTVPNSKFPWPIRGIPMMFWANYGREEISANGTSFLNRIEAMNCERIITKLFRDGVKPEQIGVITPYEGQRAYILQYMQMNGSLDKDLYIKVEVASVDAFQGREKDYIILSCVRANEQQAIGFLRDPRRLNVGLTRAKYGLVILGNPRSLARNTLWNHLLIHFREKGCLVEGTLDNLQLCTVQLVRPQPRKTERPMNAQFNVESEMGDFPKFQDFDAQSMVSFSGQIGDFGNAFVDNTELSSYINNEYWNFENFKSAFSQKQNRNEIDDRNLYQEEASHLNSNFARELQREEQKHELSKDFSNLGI

T2: CBP-Upf1-CH-HD (S. cerevisiae, UniProt P30771 54-851)
T2 sequence: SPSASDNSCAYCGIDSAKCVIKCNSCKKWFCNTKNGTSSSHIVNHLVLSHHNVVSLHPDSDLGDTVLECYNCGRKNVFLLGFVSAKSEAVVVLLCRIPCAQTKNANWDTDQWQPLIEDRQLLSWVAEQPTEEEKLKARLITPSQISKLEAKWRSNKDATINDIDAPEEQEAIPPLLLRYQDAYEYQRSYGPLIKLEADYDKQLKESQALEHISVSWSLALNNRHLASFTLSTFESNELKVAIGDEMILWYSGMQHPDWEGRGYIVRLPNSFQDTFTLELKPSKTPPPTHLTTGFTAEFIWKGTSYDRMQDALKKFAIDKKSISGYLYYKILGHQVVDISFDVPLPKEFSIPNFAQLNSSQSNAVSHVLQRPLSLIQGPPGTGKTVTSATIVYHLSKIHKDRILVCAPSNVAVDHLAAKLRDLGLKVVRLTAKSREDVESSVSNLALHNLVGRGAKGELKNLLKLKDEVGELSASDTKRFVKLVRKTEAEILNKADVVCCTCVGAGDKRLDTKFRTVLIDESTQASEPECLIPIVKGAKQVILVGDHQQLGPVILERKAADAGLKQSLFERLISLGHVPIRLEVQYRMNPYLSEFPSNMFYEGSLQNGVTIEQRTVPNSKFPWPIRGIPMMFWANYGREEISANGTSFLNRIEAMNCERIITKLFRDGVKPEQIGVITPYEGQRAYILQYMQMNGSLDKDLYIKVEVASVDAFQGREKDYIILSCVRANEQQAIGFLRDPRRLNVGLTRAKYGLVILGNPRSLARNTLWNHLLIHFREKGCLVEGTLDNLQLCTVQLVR

T3: CBP-Upf1-HD (S. cerevisiae, UniProt P30771 221-851)
T3 sequence: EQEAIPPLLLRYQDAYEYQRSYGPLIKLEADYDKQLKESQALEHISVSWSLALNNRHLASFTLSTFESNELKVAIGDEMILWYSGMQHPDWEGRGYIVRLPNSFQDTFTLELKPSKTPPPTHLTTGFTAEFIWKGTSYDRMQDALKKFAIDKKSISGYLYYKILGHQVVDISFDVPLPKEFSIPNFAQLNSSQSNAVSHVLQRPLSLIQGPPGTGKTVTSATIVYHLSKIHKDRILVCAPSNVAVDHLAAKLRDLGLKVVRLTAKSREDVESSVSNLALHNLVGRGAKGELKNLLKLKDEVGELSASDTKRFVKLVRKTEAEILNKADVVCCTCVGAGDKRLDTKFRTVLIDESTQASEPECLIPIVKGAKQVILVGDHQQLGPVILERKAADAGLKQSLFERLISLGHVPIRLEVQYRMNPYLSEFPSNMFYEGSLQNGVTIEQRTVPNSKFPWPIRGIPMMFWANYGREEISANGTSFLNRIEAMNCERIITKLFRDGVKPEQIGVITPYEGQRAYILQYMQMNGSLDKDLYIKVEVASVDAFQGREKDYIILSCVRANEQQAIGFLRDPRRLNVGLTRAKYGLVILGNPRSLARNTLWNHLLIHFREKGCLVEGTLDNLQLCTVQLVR

T4: CBP-Upf1-HD-Ct (S. cerevisiae, UniProt P30771 221-971)
T4 sequence: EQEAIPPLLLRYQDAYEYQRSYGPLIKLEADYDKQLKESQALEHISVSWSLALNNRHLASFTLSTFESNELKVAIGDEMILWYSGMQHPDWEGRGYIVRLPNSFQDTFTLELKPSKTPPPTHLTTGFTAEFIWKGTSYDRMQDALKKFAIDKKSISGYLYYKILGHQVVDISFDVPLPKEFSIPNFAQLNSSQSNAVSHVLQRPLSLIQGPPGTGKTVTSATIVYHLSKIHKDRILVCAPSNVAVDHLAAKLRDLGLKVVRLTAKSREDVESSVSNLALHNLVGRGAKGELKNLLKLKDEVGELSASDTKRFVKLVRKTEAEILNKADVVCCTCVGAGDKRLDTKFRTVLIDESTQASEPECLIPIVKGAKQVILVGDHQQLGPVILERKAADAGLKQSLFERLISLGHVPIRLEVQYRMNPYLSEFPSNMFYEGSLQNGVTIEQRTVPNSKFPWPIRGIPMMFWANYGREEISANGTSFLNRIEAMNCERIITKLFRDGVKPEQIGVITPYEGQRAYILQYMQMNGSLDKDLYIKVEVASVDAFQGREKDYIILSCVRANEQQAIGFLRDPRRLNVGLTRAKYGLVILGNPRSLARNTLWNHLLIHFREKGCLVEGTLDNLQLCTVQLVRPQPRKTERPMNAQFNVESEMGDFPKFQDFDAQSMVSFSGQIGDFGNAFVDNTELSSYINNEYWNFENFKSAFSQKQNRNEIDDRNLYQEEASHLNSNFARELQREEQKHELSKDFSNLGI


Key:
Experiment in all cases: pull-down
[1] = target: T1, CBP-Upf1-FL (S.c. Upf1 full-length)
CBP-Upf1-CH-HD = target: T2, CBP-Upf1-CH-HD
CBP-Upf1-HD = target: T3, CBP-Upf1-HD
CBP-Upf1-HD-Ct = target: T4, CBP-Upf1-HD-Ct

Binder | binding result [1] | binding result (CBP-Upf1-CH-HD) | binding result (CBP-Upf1-HD) | binding result (CBP-Upf1-HD-Ct)
GST-Dcp2-UBM1 (aa 434-508) (domain or fragment) GYSSSSPGQLLDILNSKKPDSNVQSSKKPKLKILQRGTDLNSIKQNNNDETAHSNSQALLDLLKKPTSSQKIHAS | binds | binds | – | –
GST-Ebs1 (aa 1-591) (domain or fragment) MEPSNTQKEDLPTAFNGIKSQLNSILKSNQLFQDYALLNGFLAFVHSKLNAAILTSIESQCGKSFAADLDSFDQSSISSILDFSWESVHYPIFKWFQMWRNYILFEKENKKQQTKFIDFRKMNSKMLKFFKTVQNFYVNVINTVYKKYDISVLLPKRIIQDLKLSDIENTTNVGDILAVKTFNSSSPLAHLIPTLFHRCLLFLGTAYRYKTLLEEISNKYSISNFKKSLDFFRLASLVLPSAGETYSQAGAIFLQTGNLGIAVFNFVKGMMTKMPSPVSIKNFGALMVDNKSSLNRSLHTTIMNTYLQESKGPRTPAKEILEFYFLGLFGSVWSPTSWRDDTKPNQLNNGIKLRHLENALYETMSARYLNNIKTIFHNLIITIGGFHLLLKRRSDVSAKTLKDLRSNELDYLNFAFKYIAHILNDIVKESWSENPEVSEILGMVRIINCWIKANPMVLQYSQSNLEFVNALAYLINDIVKKKPSPSFSITEHIPKRTYWFEEDLMVKGLSFVNFQLSDFDDYEKILEMDHSLDRLIGNPPLCDKLSASSEMLLRLQAVVNISSQLLQNNNCGVEWSDNKSRYIFNKKIGFK | binds | – | – | –
HisSUMO-tagged Ebs1 (aa 1-591) (domain or fragment) MEPSNTQKEDLPTAFNGIKSQLNSILKSNQLFQDYALLNGFLAFVHSKLNAAILTSIESQCGKSFAADLDSFDQSSISSILDFSWESVHYPIFKWFQMWRNYILFEKENKKQQTKFIDFRKMNSKMLKFFKTVQNFYVNVINTVYKKYDISVLLPKRIIQDLKLSDIENTTNVGDILAVKTFNSSSPLAHLIPTLFHRCLLFLGTAYRYKTLLEEISNKYSISNFKKSLDFFRLASLVLPSAGETYSQAGAIFLQTGNLGIAVFNFVKGMMTKMPSPVSIKNFGALMVDNKSSLNRSLHTTIMNTYLQESKGPRTPAKEILEFYFLGLFGSVWSPTSWRDDTKPNQLNNGIKLRHLENALYETMSARYLNNIKTIFHNLIITIGGFHLLLKRRSDVSAKTLKDLRSNELDYLNFAFKYIAHILNDIVKESWSENPEVSEILGMVRIINCWIKANPMVLQYSQSNLEFVNALAYLINDIVKKKPSPSFSITEHIPKRTYWFEEDLMVKGLSFVNFQLSDFDDYEKILEMDHSLDRLIGNPPLCDKLSASSEMLLRLQAVVNISSQLLQNNNCGVEWSDNKSRYIFNKKIGFK | binds | – | – | –
GST-Dcp2-UBM (aa 434-720) (domain or fragment) GYSSSSPGQLLDILNSKKPDSNVQSSKKPKLKILQRGTDLNSIKQNNNDETAHSNSQALLDLLKKPTSSQKIHASKPDTSFLPNDSVSGIQDAEYEDFESSSDEEVETARDERNSLNVDIGVNVMPSEKDSRRSQKEKPRNDASKTNLNASAESNSVEWGPGKSSPSTQSKQNSSVGMQNKYRQEIHIGDSDAYEVFESSSDEEDGKKLEELEQTQDNSKLISQDILKENNFQDGEVPHRDMPTESNKSINETVGLSSTTNTVKKVPKVKILKRGETFASLANDKKA | binds | binds | – | –
VGLSSTTNTVKKVPKVKILKRGETFASLANDKKA (domain or fragment) [GST-Dcp2-UBM2 (aa 687-720)] | binds | binds | – | –
GST-tagged full-length Dcp1 (aa 1-231) (natural protein) MTGAATAAENSATQLEFYRKALNFNVIGRYDPKIKQLLFHTPHASLYKWDFKKDEWNKLEYQGVLAIYLRDVSQNTNLLPVSPQEVDIFDSQNGSNNIQVNNGSDNSNRNSSGNGNSYKSNDSLTYNCGKTLSGKDIYNYGLIILNRINPDNFSMGIVPNSVVNKRKVFNAEEDTLNPLECMGVEVKDELVIIKNLKHEVYGIWIHTVSDRQNIYELIKYLLENEPKDSFA | binds | binds | binds | binds
